Data taken from US20160304586A1.

Target: hemagglutinin of influenza B virus (B/Brisbane/60/2008 BX-35) (Influenza B virus B/Brisbane/60/2008 BX-35)
Assay: cell-based or functional assay

B1: CR11039 (antibody, V domains shown)
VH: EVQLVQSGAEVKKPGESVKISCKTSGYAFTGYGISWVRQAPGQGLEWMGWINTYKFNTNYAQNLQGRVTMTIDTSTSAAYMELRSLRYEDTAVYFCARDWAGPFGNAFDVWGQGTMVTVSS
VL: IQMTQSPSSLSASIGDRVAITCQASQDISDYLNWYQQQPGKAPKLLLYGASNLETGVPSRFSGSGSGTDFTFTISSLQPEDIATYYCQQYGNLPPTFGGGTKLEIK
  neutralizing capacity in MDCK cell culture, Experiment 5, CPE, undiluted virus: > 0.4 µg/mL
  neutralizing capacity in MDCK cell culture, Experiment 6, CPE, undiluted virus: > 0.8 µg/mL
